Results: patent publication US20170291939A1 (Novartis, published 2017)

B1: XAB3 (antibody, human IgG1, kappa, V domains shown)
VH: EVQLVESGGDLVQPGGSLRLSCAASGFTFSSYWMSWVRQAPGKGLEWVANIKQDGSEKYYVDSVKGRFTISRDNAKNSLYLQMNSLRAEDTAVYYCARDRGSLYYWGQGTLVTVSS
VL: AIQLTQSPSSLSASVGDRVTITCRPSQGIYWELAWYQQKPGKAPKLLIYDASSLEQGVPSRFSGSGSGTDFTLTISSLQPEDFATYYCQQFNSYPLTFGGGTKVEIKR
B2: MB468 (Fab, V domains shown)
VH: EVQLVESGGDLVQPGGSLRLSCAASGFTFSSYWMSWVRQAPGKGLEWVANIKQDGSEKYYVDSVKGRFTISRDNAKNSLYLQMNSLRAEDTAVYYCARDRGSLYYWGQGTLVTVSS
VL: AIQLTQSPSSLSASVGDRVTITCRPSQGIYWELAWYQQKPGKAPKLLIYDASSLENGVPSRFSGSGSGTDFTLTISSLQPEDFATYYCQQFNSYPLTFGGGTKVEIK
notes: Fab variant of XAB1
B3: MB483 (Fab, V domains shown)
VH: EVQLVESGGDLVQPGGSLRLSCAASGFTFSSYWMSWVRQAPGKGLEWVANIKQDGSEKYYVDSVKGRFTISRDNAKNSLYLQMNSLRAEDTAVYYCARDRGSLYYWGQGTLVTVSS
VL: AIQLTQSPSSLSASVGDRVTITCRPSQGIFWTLAWYQQKPGKAPKLLIYDASSLENGVPSRFSGSGSGTDFTLTISSLQPEDFATYYCQQFNSYPLTFGGGTKVEIK
notes: Fab variant of XAB1
B4: XAB5 (antibody, human IgG1, kappa, V domains shown)
VH: EVQLVESGGDLVQPGGSLRLSCAASGFTFSSYWMSWVRQAPGKGLEWVANIKQDGSEKYYVDSVKGRFTISRDNAKNSLYLQMNSLRAEDTAVYYCARDRGSLYYWGQGTLVTVSS
VL: AIQLTQSPSSLSASVGDRVTITCRPSQGINWELAWYQQKPGKAPKLLIYDASSLENGVPSRFSGSGSGTDFTLTISSLQPEDFATYYCQQFNSYPLTFGGGTKVEIKR
B5: MB486 (Fab, V domains shown)
VH: EVQLVESGGDLVQPGGSLRLSCAASGFTFSSYWMSWVRQAPGKGLEWVANIKQDGSEKYYVDSVKGRFTISRDNAKNSLYLQMNSLRAEDTAVYYCARDRGSLYYWGQGTLVTVSS
VL: AIQLTQSPSSLSASVGDRVTITCRPSQGIWWMLAWYQQKPGKAPKLLIYDASSLENGVPSRFSGSGSGTDFTLTISSLQPEDFATYYCQQFNSYPLTFGGGTKVEIK
notes: Fab variant of XAB1
B6: MB464 (Fab, V domains shown)
VH: EVQLVESGGDLVQPGGSLRLSCAASGFTFSSYWMSWVRQAPGKGLEWVANIKQDGSEKYYVDSVKGRFTISRDNAKNSLYLQMNSLRAEDTAVYYCARDRGSLYYWGQGTLVTVSS
VL: AIQLTQSPSSLSASVGDRVTITCRPSQGIIYQLAWYQQKPGKAPKLLIYDASSLENGVPSRFSGSGSGTDFTLTISSLQPEDFATYYCQQFNSYPLTFGGGTKVEIK
notes: Fab variant of XAB1
B7: MB491 (Fab, V domains shown)
VH: EVQLVESGGDLVQPGGSLRLSCAASGFTFSSYWMSWVRQAPGKGLEWVANIKQDGSEKYYVDSVKGRFTISRDNAKNSLYLQMNSLRAEDTAVYYCARDRGSLYYWGQGTLVTVSS
VL: AIQLTQSPSSLSASVGDRVTITCRPSQGIFFWLAWYQQKPGKAPKLLIYDASSLENGVPSRFSGSGSGTDFTLTISSLQPEDFATYYCQQFNSYPLTFGGGTKVEIK
notes: Fab variant of XAB1
B8: XAB4T (Fab, part only; not given: CH1 and tag, part only)
heavy, part: EVQLVESGGDLVQPGGSLRLSCAASGFTFSSYWMSWVRQAPGKGLEWVANIKQDGSEKYYVDSVKGRFTISRDNAKNSLYLQMNSLRAEDTAVYYCARDRGSLYYWGQGTLVTVSSGSGGG
light: AIQLTQSPSSLSASVGDRVTITCRPSQGINWELAWYQQKPGKAPKLLIYDASSLEQGVPSRFSGSGSGTDFTLTISSLQPEDFATYYCQQFNSYPLTFGGGTKVEIKRTVAAPSVFIFPPSDEQLKSGTASVVCLLNNFYPREAKVQWKVDNALQSGNSQESVTEQDSKDSTYSLSSTLTLSKADYEKHKVYACEVTHQGLSSPVTKSFNRGEC

Assays:
[1] = target: T1, human IL-17A (construct not specified) (human, UniProt Q16552 24-155, limits assumed); experiment: cell-based or functional assay
T1 sequence: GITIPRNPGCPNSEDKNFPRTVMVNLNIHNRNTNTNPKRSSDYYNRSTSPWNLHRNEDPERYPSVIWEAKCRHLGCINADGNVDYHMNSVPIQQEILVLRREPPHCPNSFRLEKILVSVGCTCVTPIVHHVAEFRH

[2] = target: T2, recombinant huIL-17A (SEQ ID NO: 76) (human, UniProt Q16552 24-155, limits assumed); experiment: cell-based or functional assay
T2 sequence: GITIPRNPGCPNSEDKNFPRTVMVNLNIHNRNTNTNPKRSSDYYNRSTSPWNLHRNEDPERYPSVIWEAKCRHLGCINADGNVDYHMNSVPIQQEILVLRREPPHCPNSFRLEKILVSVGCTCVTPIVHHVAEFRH

[3] = target: T2, recombinant huIL-17A (SEQ ID NO: 76); experiment: cell-based or functional assay; remark: listed apart in the source
recombinant mIL-17A = target: T3, recombinant mIL-17A (mouse, UniProt Q62386 26-158); experiment: cell-based or functional assay
T3 sequence: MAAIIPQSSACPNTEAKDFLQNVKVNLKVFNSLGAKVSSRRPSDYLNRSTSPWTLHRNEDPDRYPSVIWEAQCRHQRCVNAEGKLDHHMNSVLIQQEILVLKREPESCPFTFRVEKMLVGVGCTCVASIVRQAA

[4] = target: T1, human IL-17A (construct not specified); experiment: ELISA, coated huIL-17A, then 200 nM XAB1 Fab as competitor
[5] = target: T1, human IL-17A (construct not specified); experiment: ELISA, coated huIL-17A, long wash
[6] = target: T1, human IL-17A (construct not specified); experiment: ELISA, coated huIL-17A, crude Fab extract
[7] = target: T4, human IL-17A biotin (human) (UniProt Q16552); experiment: SPR (Biacore), 25° C., biotinylated ligand
T4 sequence (chain, biotinylated, site not given): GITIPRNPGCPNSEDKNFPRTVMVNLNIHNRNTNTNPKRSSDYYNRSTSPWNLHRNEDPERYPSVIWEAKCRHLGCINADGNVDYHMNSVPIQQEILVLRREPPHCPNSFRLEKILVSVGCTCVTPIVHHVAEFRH

| Binder | Competition ELISA (normalized to XAB1 Fab) [4] [fold] | Off-rate ELISA (normalized to XAB1 Fab) [5] [fold] | Classic ELISA (normalized to XAB1 Fab) [6] [fold] | also measured |
| --- | --- | --- | --- | --- |
| B1 |  |  |  | EC50, T = 0 weeks [1]: 0.04 mg/L; EC50, T = 4 weeks at pH 8, 40° C. (forced deamidation) [1]: 40 ng/ml; IC50, huGROα secretion by BJ cells; rhuIL-17A (0.5 nM) [2]: 0.42 nM; IC50, huIL-6 secretion by BJ cells; rhuIL-17A (0.5 nM) [3]: 0.5 nM; IC50, KC secretion by CMT-93 cells; mIL-17A (0.15 nM) (recombinant mIL-17A): < 1 nM |
| B2 | 60 | 43.9 | 2.8 |  |
| B3 | 45.2 | 47.1 | 3.1 |  |
| B4 |  |  |  | EC50, T = 0 weeks [1]: 0.045 mg/L; EC50, T = 4 weeks at pH 8, 40° C. (forced deamidation) [1]: 61 ng/ml; IC50, huGROα secretion by BJ cells; rhuIL-17A (0.5 nM) [2]: 0.46 nM; IC50, huIL-6 secretion by BJ cells; rhuIL-17A (0.5 nM) [3]: 0.54 nM; IC50, KC secretion by CMT-93 cells; mIL-17A (0.15 nM) (recombinant mIL-17A): 7.8 nM |
| B5 | 64.9 | 58.5 | 1.9 |  |
| B6 | 36.9 | 34.9 | 2.7 |  |
| B7 | 44.2 | 43 | 2.1 |  |
| B8 |  |  |  | Kd [7]: 0.00768 nM; koff [7]: 3.46e-05 s⁻¹; kon [7]: 4.51e+06 M⁻¹ s⁻¹ |
